Where two headings read alike, the source gives them in different places.
B1: der p 1: dust mite allergen (protein, UniProt P08176 99-320, looked up)
Peptidase 1: TNACSINGNAPAEIDLRQMRTVTPIRMQGGCGSCWAFSGVAATESAYLAYRNQSLDLAEQELVDCASQHGCHGDTIPRGIEYIQHNGVVQESYYRYVAREQSCRRPNAQRFGISNYCQIYPPNVNKIREALAQTHSAIAVIIGIKDLDAFRHYDGRTIIQRDNGYQPNYHAVNIVGYSNAQGVDYWIVRNSWDTNWGDNGYGYFAANIDLMMIEEYPYVVIL
B2: papain: plant protease (protein, UniProt P00784 134-345, looked up)
Papain: IPEYVDWRQKGAVTPVKNQGSCGSCWAFSAVVTIEGIIKIRTGNLNEYSEQELLDCDRRSYGCNGGYPWSALQLVAQYGIHYRNTYPYEGVQRYCRSREKGPYAAKTDGVRQVQPYNEGALLYSIANQPVSVVLEAAGKDFQLYRGGIFVGPCGNKVDHAVAAVGYGPNYILIKNSWGTGWGENGYIRIKRGTGNSYGVCGLYTSSFYPVKN

Tests used:
PAR2 = details: in vitro, cited from earlier work
Source text: PAR2 signaling has been implicated in the development of inflammatory and bowel diseases, asthma, itch and pain. The receptor is expressed on many types of cells including keratinocytes, sensory neurons, fibroblasts, endothelial cells, and inflammatory cells, [3]. Consistent with this broad expression, PAR2 is involved in numerous physiologic and pathophysiologic processes in response to both endogenous and exogenous proteases.

human PAR2 = experiment: Fura-2 calcium imaging in HeLa cells transfected with PAR2 cDNA; format: cell-based; details: PAR2-transfected HeLa; KVDGTS 100 µM, cathepsin S 2 µM, papain 2 µM, trypsin 10 nM; second agent after up to 60 minutes; room temperature
Procedure: Human PAR2 cDNA was cloned as an Xho I-Hind III fragment (1206 bp) into pcDNA3.1(−). 10 µg of DNA were diluted into 0.5 ml of DMEM and mixed with 0.5 ml of DMEM containing 10 µl of Lipofectamine 2000 transfection reagent and incubated at room temperature for 20 minutes. HeLa cells were grown to confluence, trypsinized and 1×10^6 cells were pelleted in a 15 ml tube by centrifugation at 1000 rpm for 5 minutes. The DMEM-Lipofectamine 2000-DNA mixture (1 ml) was added to the cell pellet, resuspended gently and incubated at room temperature for 20 minutes. Four ml of complete DMEM with 10% FBS were added to the tube, mixed by inverting the tube several times, plated into a 96-well glass bottom plate at 20,000 cells/well, and placed in a 37°C CO2 incubator. HeLa cells transfected with vector alone or salmon sperm DNA (shown in the figures) were plated as a control. The medium was aspirated two days after transfection. Fura-2 was used as a ratiometric calcium-sensitive indicator as follows. 100 µl of complete DMEM containing 2 µM of Fura-2 were added to each well and left at room temperature in the dark for 1 hr. Following loading with Fura-2, the medium was aspirated and replaced with 90 µl of HEPES-buffered saline (20 mM HEPES, 115 mM NaCl, 5.4 mM KCl, 2 mM CaCl2, 0.8 mM MgCl2, 13.8 mM glucose, pH 7.4).
Imaging was performed using a Zeiss Axiovert 200 M microscope platform equipped with a flipping filter wheel for ratiometric imaging. Axiovision software, version 4.6 was used for image analysis of the cells which were excited at 340 nm and 380 nm. Ten µl of peptide agonist were added at 20 seconds after the start of the excitation procedure. Images were taken every 5 seconds, including at zero time, during a 3-minute period or longer if required. The software later analyzed all images taken during each excitation period. Typically, ratiometric changes were measured in 10–20 cells in each image. An average of the fluorescence of the cells in each image was calculated and plotted against time in seconds.
HeLa cells transfected with PAR2 cDNA were subjected to ratiometric imaging as described above with PAR2 peptides, SLIGRL, KVDGTS, and SLIGKVDGTS in addition to the reverse peptides LRGILS and STGDVK at concentrations from 1 nM - 1 mM. Each of the concentration-dependent readings was performed in triplicate. Maximum intensities at each of the dilutions were calculated and plotted against concentration using GraphPad/PRISM software version 6.0 (Irvine, CA). Error bars represent +/−SEM.

Row | Molecule | PAR2 activation (in words) (PAR2; dust mite allergen) | effect as first agent on calcium response to second agent (in words) (human PAR2) | PAR2 activation (in words) (PAR2; plant proteases)
1 | B1 | supporting activation |  | 
2 | B2 |  | failed to induce a calcium response at any time up to 60 minutes | supporting activation
